Reference: US20150344570A1 (published 2015)

T1: FcγRIIb extracellular domain with C-terminal His tag (human, UniProt P31994 43-217)
T1 construct: extracellular domain; Soluble receptor expressed in FreeStyle293 cells and used as analyte in Biacore; also called FcgRIIb; 2b; not shown: His tag at the C terminus
T1 sequence (looked up): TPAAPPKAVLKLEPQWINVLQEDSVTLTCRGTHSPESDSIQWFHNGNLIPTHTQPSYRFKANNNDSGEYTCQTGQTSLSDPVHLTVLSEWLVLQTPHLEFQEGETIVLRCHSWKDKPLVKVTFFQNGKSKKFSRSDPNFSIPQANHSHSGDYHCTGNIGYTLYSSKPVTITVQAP


Key:
[1] = target: T2, FcγRIIIa extracellular domain with C-terminal His tag (human, UniProt P08637 17-208); assay: SPR (Biacore); He/Con for FcγRIIIa divided by He/Con for FcγRIIb
T2 construct: extracellular domain; also called FcgRIIIa; 3a; not shown: His tag at the C terminus
T2 sequence (P08637 17-208): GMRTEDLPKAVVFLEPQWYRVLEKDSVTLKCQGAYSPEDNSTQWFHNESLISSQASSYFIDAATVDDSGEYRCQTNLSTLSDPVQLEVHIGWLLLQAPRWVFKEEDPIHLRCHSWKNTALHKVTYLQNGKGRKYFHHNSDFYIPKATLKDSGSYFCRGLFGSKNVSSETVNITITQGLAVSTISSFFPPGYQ
Protocol: (§1) The heterodimerized antibodies He Abs in which one of the H chains was introduced with an alteration were assayed for their binding activities to each activating FcγR and inhibitory FcγR according to the method described in Example 4. […] The activating FcγRs in FIGS. 26, 27, 28, and 29 are FcγRIa, FcγRIIa (R), FcγRIIa (H), and FcγRIIIa, respectively.
(§2) Analysis of interaction between objective antibody and the FcγR was carried out using Biacore T100 (GE Healthcare). HBS-EP+ (GE Healthcare) was used as the running buffer, and the measurement temperature was set to 25° C. Chips produced by immobilizing the antigen peptide by the amine coupling method to a Series S Sencor Chip CM5 (GE Healthcare), or alternatively, chips produced by allowing preliminarily biotinylated antigen peptides to interact with and immobilize onto a Series S Sensor Chip SA (certified) (GE Healthcare) were used. Antibodies of interest were captured onto an antigen peptide-immobilized chip, and allowed to interact to each FcγR diluted with running buffer. To regenerate and repeatedly use the chip, the antibodies captured on the chip were washed off by reacting 10 mM glycine-HCl, pH 1.5.

[2] = target: T1, FcγRIIb extracellular domain with …; assay: SPR (Biacore), antibody captured on antigen-peptide chip, FcγR as analyte; relative binding amount
Protocol: as §1, §2

[3] = target: T2, FcγRIIIa extracellular domain with …; assay: as above
Protocol: as §1, §2

| Binder | He_3a/2b (IIIa/IIb) [1] | He/Con_2b (IIb binding) [2] | He/Con_3a (IIIa binding) [3] |
| --- | --- | --- | --- |
| GpH7-A5/GpH7-B3 variant I336_14T/GpL16-k0 (antibody, human IgG1, kappa, Heterodimerized anti-glypican-3 IgG1 (He Ab); The mutation is in the GpH7-B3 chain only; also called He Ab with I336T in GpH7-B3) heavy 1: not shown heavy 2: not shown light: DIVMTQSPLSLPVTPGEPASISCQASESLVHSNRNTYLHWYLQKPGQSPQLLIYKVSNRFSGVPDRFSGSGSGTDFTLKISRVEAEDVGVYYCSQNTHVPPTFGQGTKVEIERTVAAPSVFIFPPSDEQLKSGTASVVCLLNNFYPREAKVQWKVDNALQSGNSQESVTEQDSKDSTYSLSSTLTLSKADYEKHKVYACEVTHQGLSSPVTKSFNRGEC | 1.21 ratio | 89.5 relative, GpH7-A5/GpH7-B3/GpL16-k0 = 100 | 108 relative, GpH7-A5/GpH7-B3/GpL16-k0 = 100 |
| GpH7-A5/GpH7-B3 variant K334_10E/GpL16-k0 (antibody, human IgG1, kappa, Heterodimerized anti-glypican-3 IgG1 (He Ab); The mutation is in the GpH7-B3 chain only; also called He Ab with K334E in GpH7-B3) heavy 1: not shown heavy 2: not shown light: DIVMTQSPLSLPVTPGEPASISCQASESLVHSNRNTYLHWYLQKPGQSPQLLIYKVSNRFSGVPDRFSGSGSGTDFTLKISRVEAEDVGVYYCSQNTHVPPTFGQGTKVEIERTVAAPSVFIFPPSDEQLKSGTASVVCLLNNFYPREAKVQWKVDNALQSGNSQESVTEQDSKDSTYSLSSTLTLSKADYEKHKVYACEVTHQGLSSPVTKSFNRGEC | 1.58 ratio | 114 relative, GpH7-A5/GpH7-B3/GpL16-k0 = 100 | 181 relative, GpH7-A5/GpH7-B3/GpL16-k0 = 100 |
| GpH7-A5/GpH7-B3 variant I336_13S/GpL16-k0 (antibody, human IgG1, kappa, Heterodimerized anti-glypican-3 IgG1 (He Ab); The mutation is in the GpH7-B3 chain only; also called He Ab with I336S in GpH7-B3) heavy 1: not shown heavy 2: not shown light: DIVMTQSPLSLPVTPGEPASISCQASESLVHSNRNTYLHWYLQKPGQSPQLLIYKVSNRFSGVPDRFSGSGSGTDFTLKISRVEAEDVGVYYCSQNTHVPPTFGQGTKVEIERTVAAPSVFIFPPSDEQLKSGTASVVCLLNNFYPREAKVQWKVDNALQSGNSQESVTEQDSKDSTYSLSSTLTLSKADYEKHKVYACEVTHQGLSSPVTKSFNRGEC | 1.21 ratio | 83.7 relative, GpH7-A5/GpH7-B3/GpL16-k0 = 100 | 102 relative, GpH7-A5/GpH7-B3/GpL16-k0 = 100 |
| GpH7-A5/GpH7-B3 variant I336_03V/GpL16-k0 (antibody, human IgG1, kappa, Heterodimerized anti-glypican-3 IgG1 (He Ab); The mutation is in the GpH7-B3 chain only; also called He Ab with I336V in GpH7-B3) heavy 1: not shown heavy 2: not shown light: DIVMTQSPLSLPVTPGEPASISCQASESLVHSNRNTYLHWYLQKPGQSPQLLIYKVSNRFSGVPDRFSGSGSGTDFTLKISRVEAEDVGVYYCSQNTHVPPTFGQGTKVEIERTVAAPSVFIFPPSDEQLKSGTASVVCLLNNFYPREAKVQWKVDNALQSGNSQESVTEQDSKDSTYSLSSTLTLSKADYEKHKVYACEVTHQGLSSPVTKSFNRGEC | 1.24 ratio | 90.3 relative, GpH7-A5/GpH7-B3/GpL16-k0 = 100 | 112 relative, GpH7-A5/GpH7-B3/GpL16-k0 = 100 |

Next, values leading:

| He_3a/2b (IIIa/IIb) [1] | He/Con_2b (IIb binding) [2] | He/Con_3a (IIIa binding) [3] | Binder |
| --- | --- | --- | --- |
| 1.29 ratio | 109 relative, GpH7-A5/GpH7-B3/GpL16-k0 = 100 | 141 relative, GpH7-A5/GpH7-B3/GpL16-k0 = 100 | GpH7-A5/GpH7-B3 variant K334_15Y/GpL16-k0 (antibody, human IgG1, kappa, Heterodimerized anti-glypican-3 IgG1 (He Ab); The mutation is in the GpH7-B3 chain only; also called He Ab with K334Y in GpH7-B3) heavy 1: not shown heavy 2: not shown light: DIVMTQSPLSLPVTPGEPASISCQASESLVHSNRNTYLHWYLQKPGQSPQLLIYKVSNRFSGVPDRFSGSGSGTDFTLKISRVEAEDVGVYYCSQNTHVPPTFGQGTKVEIERTVAAPSVFIFPPSDEQLKSGTASVVCLLNNFYPREAKVQWKVDNALQSGNSQESVTEQDSKDSTYSLSSTLTLSKADYEKHKVYACEVTHQGLSSPVTKSFNRGEC |
| 1.23 ratio | 104 relative, GpH7-A5/GpH7-B3/GpL16-k0 = 100 | 128 relative, GpH7-A5/GpH7-B3/GpL16-k0 = 100 | GpH7-A5/GpH7-B3 variant K334_20W/GpL16-k0 (antibody, human IgG1, kappa, Heterodimerized anti-glypican-3 IgG1 (He Ab); The mutation is in the GpH7-B3 chain only; also called He Ab with K334W in GpH7-B3) heavy 1: not shown heavy 2: not shown light: DIVMTQSPLSLPVTPGEPASISCQASESLVHSNRNTYLHWYLQKPGQSPQLLIYKVSNRFSGVPDRFSGSGSGTDFTLKISRVEAEDVGVYYCSQNTHVPPTFGQGTKVEIERTVAAPSVFIFPPSDEQLKSGTASVVCLLNNFYPREAKVQWKVDNALQSGNSQESVTEQDSKDSTYSLSSTLTLSKADYEKHKVYACEVTHQGLSSPVTKSFNRGEC |
| 1.25 ratio | 109 relative, GpH7-A5/GpH7-B3/GpL16-k0 = 100 | 136 relative, GpH7-A5/GpH7-B3/GpL16-k0 = 100 | GpH7-A5/GpH7-B3 variant K334_19Q/GpL16-k0 (antibody, human IgG1, kappa, Heterodimerized anti-glypican-3 IgG1 (He Ab); The mutation is in the GpH7-B3 chain only; also called He Ab with K334Q in GpH7-B3) heavy 1: not shown heavy 2: not shown light: DIVMTQSPLSLPVTPGEPASISCQASESLVHSNRNTYLHWYLQKPGQSPQLLIYKVSNRFSGVPDRFSGSGSGTDFTLKISRVEAEDVGVYYCSQNTHVPPTFGQGTKVEIERTVAAPSVFIFPPSDEQLKSGTASVVCLLNNFYPREAKVQWKVDNALQSGNSQESVTEQDSKDSTYSLSSTLTLSKADYEKHKVYACEVTHQGLSSPVTKSFNRGEC |
| 1.31 ratio | 111 relative, GpH7-A5/GpH7-B3/GpL16-k0 = 100 | 145 relative, GpH7-A5/GpH7-B3/GpL16-k0 = 100 | GpH7-A5/GpH7-B3 variant K334_13S/GpL16-k0 (antibody, human IgG1, kappa, Heterodimerized anti-glypican-3 IgG1 (He Ab); The mutation is in the GpH7-B3 chain only; also called He Ab with K334S in GpH7-B3) heavy 1: not shown heavy 2: not shown light: DIVMTQSPLSLPVTPGEPASISCQASESLVHSNRNTYLHWYLQKPGQSPQLLIYKVSNRFSGVPDRFSGSGSGTDFTLKISRVEAEDVGVYYCSQNTHVPPTFGQGTKVEIERTVAAPSVFIFPPSDEQLKSGTASVVCLLNNFYPREAKVQWKVDNALQSGNSQESVTEQDSKDSTYSLSSTLTLSKADYEKHKVYACEVTHQGLSSPVTKSFNRGEC |
